The supplement of paper PMC7125110
± gives the standard error. Variants at the floor of the assay were thinned out.

B1: glmS ribozyme (parent)
chain: AUAAAAGCGCCAGAACUACAGAAAUGUAGUUGACGAGGAGGAGGUUUAUCGAAUUUUCGGCGGAUGCCUCCAAA

Variants of: B1
Experiment: self-cleavage kobs at 2500 uM GlcN6P; higher = faster cleavage; RNA array
Settings: with glucosamine-6-phosphate
Summary of the method: (§1)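 Glucosamine-6-phosphate (40 μM to 10 mM) in HEPES/KCl/Mg(OAc)2 buffer was flowed over sequenced MiSeq chips, and tiles were imaged over ~14 h. Barcoded ribozyme variants there had been transcribed in situ by E. coli RNA polymerase and were tracked through a hybridised Cy3 probe at 37 °C. One- or two-exponential decay fits to per-tile medians, normalised to baseline and to non-cleaving reference variants, gave kobs. kcat and KM came from weighted Michaelis–Menten fits across concentrations.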

Row | Variant | self-cleavage kobs at 2500 uM GlcN6P [s⁻¹]
1 | U46G A48G U57G G62U | < 1e-05
2 | G44U C67U C71A | 3.95e-05 ± 1.3e-05
3 | A52G U57C C67U | 0.000161 ± 7.8e-05
4 | U45C U47G | 0.000218 ± 9.6e-05
5 | G51U C68U C71U | < 1e-05
6 | C50U G59A C70G C71U | 5.06e-05 ± 1.7e-05
7 | U46G G63U C70A | < 1e-05
8 | G44A A53U U54C | 0.000119 ± 4.8e-05
9 | U49G U54G C68G | 6.25e-05 ± 2.4e-05
10 | A53C U57G C67U | 8.03e-05 ± 2.5e-05
11 | C61U G63C C71U | < 1e-05
12 | G51C G66C C71A | < 1e-05
13 | G44A U49C | < 1e-05
14 | A52U A53G A64G | 5.47e-05 ± 1.7e-05
15 | U47G C58A C68A | 0.000116 ± 2.9e-05
16 | A48C U49A U55C | < 1e-05
17 | A48G C50A U69G | 0.000106 ± 3e-05
18 | U45A A52U C71U | 0.000244 ± 9.4e-05
19 | U46G G59U G60U | < 1e-05
20 | U46C C50U C61U | < 1e-05
21 | G44C C70A C71U | < 1e-05
22 | A52U G60A G66U | < 1e-05
23 | U54G C68U C70U | 0.00037 ± 6.8e-05
24 | A52C C58A C70U | < 1e-05
25 | G43C U45A C68G | 0.00405 ± 0.0014

Row | Variant | self-cleavage kobs at 2500 uM GlcN6P [s⁻¹]
26 | G43U G44U G60A A64G C67A C71G | < 1e-05
27 | U46C U57A C71U | 4.35e-05 ± 1.6e-05
28 | C50U A53U G62C | < 1e-05
29 | U46G U65A C67G | 0.000131 ± 2.5e-05
30 | A53U U54G U55A C71U | 0.00523 ± 0.0019
31 | U46A U49A G63C C67G | < 1e-05
32 | A48G U56A U69G | 7.7e-05 ± 2.2e-05
33 | U45G A64U C68U | < 1e-05
34 | C58U A64U C67G | < 1e-05
35 | C50G G60U C61G U65A | 9.15e-05 ± 3e-05
36 | U46A C58A C61U | < 1e-05
37 | A64G C68G C71G | 0.000122 ± 3.9e-05
38 | U45A A48G C67G | 8.99e-05 ± 3.1e-05
39 | G43C U46G C58A | < 1e-05
40 | G43C G51C U65A | < 1e-05
41 | G44C A48G | < 1e-05
42 | A48C G63A C71A | < 1e-05
43 | G43U G60A G66A C68G C70G | < 1e-05
44 | U46C G60A C70G | < 1e-05
45 | G59C C61U C67A | 4.78e-05 ± 1.7e-05
46 | U45C C61U C70G | < 1e-05
47 | U57A C61G C70G | 3.93e-05 ± 1.9e-05
48 | A52G U54C C70U C71G | 7e-05 ± 2.3e-05
49 | U46C G66A C70U | 0.00157 ± 0.00039

Variants of: B1
Experiment: self-cleavage kobs at 10000 uM GlcN6P; higher = faster cleavage; RNA array
Settings: with glucosamine-6-phosphate
Summary of the method: as §1

Row | Variant | self-cleavage kobs at 10000 uM GlcN6P [s⁻¹]
50 | G7U G26U A52C | < 1e-05
51 | G44U C67U C71A | 4.71e-05 ± 1.2e-05
52 | A6U A14G A36U A48U G63U | < 1e-05
53 | A6C C34A G37U | < 1e-05
54 | C11U G40A A52C G62C | < 1e-05
55 | A12U U54C G59U A64C | < 1e-05
56 | A12U C50G A52C C70G | 7.94e-05 ± 2.3e-05
57 | C8U G29U G32C G35C A36U C50A A52U | < 1e-05
58 | A52G U57C C67U | 0.000116 ± 2.5e-05
59 | A12C G32A G35A G51C | < 1e-05
60 | A12G U65G C70U | 0.000133 ± 1.7e-05
61 | A12U U30C G32A A52U U65G C70G | < 1e-05
62 | G7C A48G C50A | < 1e-05
63 | A12C G29C A39U | 0.000876 ± 0.0002
64 | C8U C16A A39C A42C G59C C67A C70U | < 1e-05
65 | A6U A36U A42C U65C | < 1e-05
66 | G44A A53U U54C | 0.000211 ± 6.8e-05
67 | A6U A33G G43C G60U | < 1e-05
68 | C11U A36C G43U | < 1e-05
69 | C10U G60U A64U | < 1e-05
70 | A6U A15G G43A C68G | < 1e-05
71 | C8A U56C C70G | < 1e-05
72 | G9U A15U C34A C58G | < 1e-05
73 | A12C U57G | 5.46e-05 ± 1.2e-05
74 | G7A C8U U56C | < 1e-05

Row | Variant | self-cleavage kobs at 10000 uM GlcN6P [s⁻¹]
75 | G7A C16U | 2.32e-05 ± 1.2e-05
76 | C10G U30A G37C A39U G62A | < 1e-05
77 | C11A U30C A39C G59U | 0.000272 ± 6.2e-05
78 | C10U A33G C68U | < 1e-05
79 | C11U A42C U69A | 9.21e-05 ± 2.5e-05
80 | G9A C10G U69G | 0.000596 ± 0.00021
81 | A12G U45A U55A | 0.00202 ± 0.00039
82 | G13A C50G C70G | 9.61e-05 ± 2e-05
83 | C10U C34A G41U | < 1e-05
84 | C8A A15U C70U | < 1e-05
85 | A6G U30G C68G | < 1e-05
86 | G7U C16A G62A | < 1e-05
87 | C8G U30G G40A | < 1e-05
88 | G9A A33C C50G A52G G59U C71A | 5.24e-05 ± 2e-05
89 | G13A G37A | 4.89e-05 ± 1.1e-05
90 | C10A U31C G38U A48C | < 1e-05
91 | G7U G29U G37U | < 1e-05
92 | C11G U30C A42C U55G C61A G62A C71G | < 1e-05
93 | A6G A14U A36G C50A | < 1e-05
94 | G13A A42C G60C | < 1e-05
95 | A12U A33C U47C C67G | < 1e-05
96 | G7C C11A G13A | < 1e-05
97 | A6C A14G A64G | 0.000191 ± 3.2e-05
98 | A6G U47A | 0.000437 ± 0.00013
99 | C8G A42U U55G | < 1e-05

Row | Variant | self-cleavage kobs at 10000 uM GlcN6P [s⁻¹]
100 | A6C U31A A64C C71G | < 1e-05
101 | A12C A15U C58G | 0.00016 ± 3.5e-05
102 | A6C C8U G9C C67U | < 1e-05
103 | A12G U30A C34U U45G C67A | < 1e-05
104 | C10U A15G G35A | < 1e-05
105 | G9C U31A | < 1e-05
106 | C11G A15U C50A G51U C70A | 4.33e-05 ± 1.2e-05
107 | C10U G38U G63C C70U | < 1e-05
108 | A6C U56A C68G | < 1e-05
109 | A12C U46C G51U U54A | < 1e-05
110 | A12C A14G U47A A53G C58U | 3.29e-05 ± 1.6e-05
111 | C11G U25C A53U A64U | < 1e-05
112 | C11U A14C A15U G38U C68G | 7.05e-05 ± 3e-05
113 | C10G A12G C61U | < 1e-05
114 | C11U G32U U45G C61G | < 1e-05
115 | G7C G9U G41A C50U C71G | < 1e-05
116 | C11U G66U C71G | < 1e-05
117 | C11A U47G | 5.18e-05 ± 1.5e-05
118 | C8U U46G G66C C70G | 9.08e-05 ± 2.6e-05
119 | G9U A15U G37U | < 1e-05
120 | C10G G37A G60U | < 1e-05
121 | C11U A15U A42U | < 1e-05
122 | A6U G9U A52U | < 1e-05
123 | C11U A12G C50U | < 1e-05
124 | G9U C34U A36C G62C | < 1e-05

Row | Variant | self-cleavage kobs at 10000 uM GlcN6P [s⁻¹]
125 | C10A A36C C50U G59C | < 1e-05
126 | G13A A42U U49G C58U | < 1e-05
127 | A12U A15U U57G | 3.38e-05 ± 1.4e-05
128 | A12U G32U U54C | 0.000319 ± 5.4e-05
129 | G13A A22U U45G | 7.33e-05 ± 1e-05
130 | A6G A42U G59U | < 1e-05
131 | C10G C61A G66U | < 1e-05
132 | C11U G32U C61G U69C | 0.00014 ± 3.4e-05
133 | A12G C16G C34G U55G | < 1e-05
134 | A12U A48C U49C C50A C68U | < 1e-05
135 | G7U G13U C16U C50G U56G G66U | 3.32e-05 ± 1.5e-05
136 | C10U C34U A48C | < 1e-05
137 | C11G G40C U54A C70U C71G | < 1e-05
138 | G9C G41U G43U C67G | < 1e-05
139 | G7A A64G C67U C70G | < 1e-05
140 | C8A A15U G35C | < 1e-05
141 | A6C U31G G41C U54A U55C C68U | < 1e-05
142 | G9C C50U A64U | < 1e-05
143 | A12U A15C C16U | 0.0012 ± 0.00023
144 | C8U G37C C50A G59C A64C | < 1e-05
145 | G9U U31G U54A | < 1e-05
146 | C8G A14C G38A U56A G59U | < 1e-05
147 | A12G G43U G60C | < 1e-05
148 | G7U A15U C70G | 3.63e-05 ± 1.7e-05
149 | C8U G13U A15U C16U G32C A48U | < 1e-05

Row | Variant | self-cleavage kobs at 10000 uM GlcN6P [s⁻¹]
150 | A6C C16U G38U U49G G51U G59C U65A | < 1e-05
151 | C11U G29C C71U | 0.000101 ± 1.9e-05
152 | C11G A64C C67G | < 1e-05
153 | G9A A15C C67A | < 1e-05
154 | G9A A12G A36C G38C | < 1e-05
155 | G7A G9C G40U | < 1e-05
156 | C10U C58U G59C | < 1e-05
157 | A12G G13U G40A | 4.65e-05 ± 1.4e-05
158 | C8G G43A G44A C67A C70G | < 1e-05
159 | A12C U69A C71U | 4.87e-05 ± 1.6e-05
160 | C11U A12U U46G C70U | 0.000953 ± 0.00017
161 | C8A G40C G59A G63A | < 1e-05
162 | C8A C11G A48U C67G C71A | < 1e-05
163 | A12U A14C U31C | 0.00145 ± 0.00047
164 | G7A G29U G37C | < 1e-05
165 | G9A U30A C70A | < 1e-05
166 | C10A U45A A52U | < 1e-05
167 | C8U C58G U69G | 0.000536 ± 0.00016
168 | G13C A15C U49C | < 1e-05
169 | C11A C16A G66C C70G | 6.24e-05 ± 2.5e-05
170 | A12G C61A | < 1e-05
